Holding throughout (parameters): species or system HSV-1
The target in one experiment is T1, gB/VP22trunc binding (Human herpesvirus 1, UniProt P10211).
T1 construct: linked residues 798 to 904 of gB to the glutathione-S-transferase (GST) protein expressed by pGex2TNMCR; made in house; host or cells: GST-gB: E. coli DH5alpha; VP22trunc: E. coli BL21(DE3)
The experiment can be described thus: Far Western analysis of peptide inhibition of GST-gB binding to VP22trunc. Conditions: peptide 250 μg/ml co-incubated with GST-gB 1.2 μg/ml; FIG. 12B. As for the experimental part: (B) Inhibition of binding of GST-gB (final concentration 1.2 μg/ml)and each of the following peptides at a final concentration of 250 μg/ml: lane 1, no peptide; lane 2, peptide A; lane 3, peptide B; lane 4, peptide C; lane 5, peptide D; lane 6, peptide E; lane 7, peptide F; lane 8, peptide G; lane 9, peptide H; lane 10, peptide I; lane 11, peptide J. Bound GST-gB was detected with anti-GST antibody.
Following electrophoresis, proteins were electrotransferred to either Hybond or ProBlott (Applied Biosystems) membrane and the membrane was incubated in renaturation buffer (50 mM Tris-HCl, pH 8.0, 150 mM NaCl, 10% glycerol, 1 mM DTT) at 4° C. for 5-6 hours.
For membranes probed with GST-gB, blocking was performed overnight in PBSA containing 1% non-fat dried milk and 0.05% Tween 20 at 4° C. Membranes were then washed twice in renaturation buffer (10 min/wash) prior to incubation with fusion protein (final concentration 0.5 μg/ml) in renaturation buffer containing 1% BSA. Incubation was again performed overnight at 4° C. Following washing with renaturation buffer (four times, 10 minutes/wash) and a brief rinse with blocking buffer, the membrane was incubated with anti-GST antibody in PBSA, 1% non-fat dried milk, 0.05% Tween 20 and 1% BSA for 1 hour at ambient temperature. After four washes with PBSA, 0.05% Tween 20 (10 minutes/wash), bound antibody was detected with secondary antibody (goat anti-rabbit IgG, whole molecule; Sigma) conjugated to Horse Radish Peroxidase (HRP) by incubating at room temperature for 45 minutes. Following four further washes with PBSA, 0.05% Tween 20, the secondary antibody was visualised by enhanced chemiluminescence.
Similar to the studies performed with inhibition of binding of VP16 to VP22, peptides A to J, which span residues 18 to 144 of VP22trunc, were used to examine whether gB binding could also be prevented (FIG. 12B).

Another experiment has as its target T2, VP16 (Human herpesvirus 1, UniProt P06492).
T2 construct: Plasmid pETVP16 was used to express full-length VP16 under the control of the T7 RNA polymerase promoter; made in house; host or cells: E. coli BL21(DE3)
Put plainly: ELISA of direct binding of VP16 to plate-coated peptides. Conditions: wells coated with peptide up to 500 μg/ml; VP16 1.6 μg/ml; FIG. 10. As for the experimental part:
FIG. 10 Binding of VP16 to peptides. Microtitre plates were coated with 5-fold dilutions of peptides ranging from 500 μg/ml to 1 μg/ml and blocked with PBS/10% NCS. VP16 was then added to a final concentration of 1.6 μg/ml and detected with LP1. The legend for the peptides added is shown to the right of the graph.
(§1) Dilutions of proteins in PBS were coated overnight onto flat bottomed micro-titre plates (Dynatech) at 37° C. and then blocked with either 2% BSA or 10% new-born calf serum (NCS) in PBS for 1 hour at 37° C. Specific binding of a second protein to the plate-bound protein was performed for 1.5-2 hours at ambient temperature. a Excess secondary protein was removed by washing four times with PBS, 0.3% Tween 20. Bound protein was detected by incubation for 1.5-2 hours with LP1 antibody in PBS, 1% gelatin or PBS, 2% NCS. The bound antibody was detected by incubation for 1 hour at ambient temperature with anti-mouse antibody conjugated to HRP (1:500) and visualised with Smg/ml enzyme substrate 2,2'-azino-bis(3-ethylbenzthiazoline-6-sulphonic acid) (ABTS; Sigma) in citrate-phosphate buffer containing 6 μl hydrogen peroxide in a total volume of 20 ml. Optical densities were measured on a Titertek Multiscan PLUS instrument.
To examine whether VP16 could bind directly to the peptides, wells were coated with each peptide (A-J) at a range of concentrations from […] to 500 μg/ml and the plate was then blocked with […]. […] Nonetheless, the data for peptides D and E implicate direct binding of these peptides to VP16 as the mechanism for inhibiting its interaction with VP22. Peptide H also was active in experiments which prevented gB binding to VP22trunc [Section 4 (iii)] and thus also forms an aspect of the invention.

Experiment [1] has as its target T3, VP16/VP22trunc interaction (Human herpesvirus 1, UniProt P06492).
T3 construct: Plasmid pETVP16 was used to express full-length VP16 under the control of the T7 RNA polymerase promoter; made in house; host or cells: E. coli BL21(DE3)
The experiment can be described thus: ELISA of peptide inhibition of VP16 binding to VP22trunc. To be noted: for Inhibition of VP16 binding to VP22trunc in ELISA: D and E pure preparations, effect at 100 and 500 μg/ml, VP16 1.6 μg/ml, 160 ng VP22trunc, FIG. 9; for IC50: converted from μg/ml, maximum molarities, read-out: Molarity for 50% inhibition of VP16 binding (ELISA); for IC50 / Concentration for 50% inhibition of VP16 binding (ELISA): peptides not 100% soluble; for Concentration for 50% inhibition of VP16 binding (ELISA): pure peptide preparations, maximum values. As for the experimental part: FIG. 9 Inhibitory effect of peptides D and E on the VP22trunc-VP16 interaction in ELISAs. Microtitre plates were coated with 160 ng of VP22trunc and blocked with PBS/10% NCS. Before addition to the wells, five-fold dilutions of the peptides, ranging from 500 μg/ml to 1 g/ml, were incubated with VP16 (1.6 μg/ml). Bound VP16 was detected with LP1 at a dilution of 1:1000. The legend for the peptides added is shown to the right of the graph. Values are shown relative to those obtained in the absence of the peptide.
as §1
To adopt a more quantitative approach, an ELISA for VP16 binding to VP22trunc was developed. Optimal conditions were determined by coating wells with various quantities of VP22trunc followed by blocking with 2% BSA. Plates were then incubated with dilutions of VP16 and the bound VP16 detected with LP1.
The studies presented above have provided strong evidence in support of peptide inhibition of the interaction between VP16 and VP22. However, quantitative analysis of the ability of peptides to block any interaction is difficult to perform by the above methods. Therefore, using the ELISA system described in Results Section 2(iii) with the exception that PBS/10% NCS was utilised as a blocking agent, the inhibitory effects of peptides D and E were examined. This modification arose due to nonspecific binding of the peptides to wells when BSA was used for blocking (data not shown).

T3 sequence (P06492 whole entry): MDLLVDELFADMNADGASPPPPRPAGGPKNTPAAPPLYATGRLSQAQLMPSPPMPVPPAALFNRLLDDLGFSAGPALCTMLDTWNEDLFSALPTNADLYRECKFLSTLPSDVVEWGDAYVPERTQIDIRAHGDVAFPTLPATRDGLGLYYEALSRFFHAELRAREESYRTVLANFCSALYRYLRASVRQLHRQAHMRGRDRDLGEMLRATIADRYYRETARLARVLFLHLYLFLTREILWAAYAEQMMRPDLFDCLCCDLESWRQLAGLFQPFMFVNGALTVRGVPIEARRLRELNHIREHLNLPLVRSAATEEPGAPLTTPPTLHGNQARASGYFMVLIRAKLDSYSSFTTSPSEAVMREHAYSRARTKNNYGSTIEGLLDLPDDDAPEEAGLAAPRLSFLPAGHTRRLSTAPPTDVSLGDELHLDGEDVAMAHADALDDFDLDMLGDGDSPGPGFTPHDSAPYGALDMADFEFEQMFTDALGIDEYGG
T2 sequence (P06492 whole entry): as above
T1 sequence (P10211 798-904): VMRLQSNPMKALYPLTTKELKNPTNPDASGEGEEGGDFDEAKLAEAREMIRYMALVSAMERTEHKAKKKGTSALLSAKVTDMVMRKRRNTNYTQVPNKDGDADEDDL

As to CAAVGRLAAMHARMAAVQLW [Peptide E], in the experiment with gB/VP22trunc binding, the “Inhibition of GST-gB binding to VP22trunc (Far Western)” value is reported as “completely inhibited binding of gB”. In the experiment with VP16, the “Direct binding of VP16 to plate-coated peptide (ELISA)” value (from here on “Direct binding of VP16”) is recorded as “binding was found with higher concentrations”. Besides, in experiment [1], the “Inhibition of VP16 binding to VP22trunc in ELISA” value (shortened to “Inhibition … in ELISA”) is recorded as “could inhibit binding of VP16 to VP22trunc”, the IC50 amounted to 44.1 µM and the “Concentration for 50% inhibition of VP16 binding (ELISA)” value was determined as 85.7 µg/mL.

Take FSTAPPNPDAPWTPRVAGFN [Peptide C]: the “Direct binding of VP16” value with VP16 is “binding did not occur”. Moreover, in experiment [1], the “Inhibition … in ELISA” value is on record as “neither peptides B, C nor F had any effect”.

Regarding TPRVAGFNKRVFCAAVGRLA [Peptide D], the “Inhibition of GST-gB binding to VP22trunc (Far Western)” value in the experiment with gB/VP22trunc binding is given as “completely inhibited binding of gB”. In addition, the “Direct binding of VP16” value in the experiment with VP16 is given as “binding was found with higher concentrations”. Besides, in experiment [1], the “Inhibition … in ELISA” value is recorded as “could inhibit binding of VP16 to VP22trunc”, the IC50 came to 99.7 µM and the “Concentration for 50% inhibition of VP16 binding (ELISA)” value stood at 212.5 µg/mL.
